Patent US20160185837A1 (Medimmune Limited, priority 2013, published 2016)
pEC50: −log10 of the molar value. Like-named read-outs stand apart in the source and are kept apart here.

Tests used:
PK by Fc Detection = experiment: PK by Fc Detection
Description: Table printed on a drawing sheet, FIG. 3A-C
Title: PK by Fc Detection
(§1) Circles: IV injection of 1 mg/kg, squares: subcutaneous injection of 1 mg/kg. Pharmacokinetic parameters Cmax, bioavailability (F %) and half-life T1/2 are compared in panel C.
(§2) Circles: IV injection of 1 mg/kg, squares: subcutaneous injection of 1 mg/kg. Pharmacokinetic parameters Cmax, bioavailability (F %) and half life T112 are compared in panel F.
First reader's note: Panel C of FIG. 3A-C; the title 'PK by Fc Detection' is printed over the whole sheet, including plot panels A and B.

PK by Activity = experiment: PK by Activity
Description: Table printed on a drawing sheet, FIG. 3D-F
as §1, §2
First reader's note: Panel F of FIG. 3D-F; the pharmacokinetic parameters were derived from plasma levels measured by activity (sheet heading 'PK by Activity').

[1] = molecular target: T1, human GLP-1 receptor (hGLP-1r) (Homo sapiens, UniProt P43220); experiment: BSA-cAMP assay, cells expressing human GLP-1 receptor; type: cell-based; settings: BSA-cAMP assay
T1 construct: expressed in transfected cells
T1 sequence (P43220 24-463): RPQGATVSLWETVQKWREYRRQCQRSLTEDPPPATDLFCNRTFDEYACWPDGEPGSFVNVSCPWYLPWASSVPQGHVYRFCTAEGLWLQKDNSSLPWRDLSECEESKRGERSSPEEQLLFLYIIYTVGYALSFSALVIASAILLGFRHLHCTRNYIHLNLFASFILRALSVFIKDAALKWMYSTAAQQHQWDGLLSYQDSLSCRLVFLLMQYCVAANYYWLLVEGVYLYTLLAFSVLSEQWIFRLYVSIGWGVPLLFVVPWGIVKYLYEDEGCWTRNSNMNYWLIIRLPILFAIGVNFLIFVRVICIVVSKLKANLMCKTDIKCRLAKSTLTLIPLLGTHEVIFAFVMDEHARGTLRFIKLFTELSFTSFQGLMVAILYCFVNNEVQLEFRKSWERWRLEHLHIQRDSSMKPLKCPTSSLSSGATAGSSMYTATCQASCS
Description: (§3) One basic cAMP assays was performed, differing in the medium used for the assay, the “BSA-cAMP assay”:
(§4) BSA-based assay medium: 0.1% bovine serum albumin (BSA) in
(§5) In certain aspects, the assay can also be carried out in medium supplemented with serum albumin that corresponds to the receptor being tested, e.g., human serum albumin for testing cAMP activity at hGIPr or hGLP-1r, rat serum albumin for testing cAMP activity at rGIPr or rGLP-1r, and so on. […] All sample dilutions were made in duplicate.
(§6) A frozen cryo-vial of cells expressing the receptor of interest was thawed rapidly in a water-bath, transferred to pre-warmed assay media and spun at 240×g for 5 minutes. Cells were re-suspended in assay buffer at an optimized concentration (e.g., hGLP-1r and hGIPr cells at 0.5×10^5 cells/ml).
(§7) To this, 5 μL cell suspension was added and the plates incubated at room temperature for 30 minutes.
(§8) cAMP levels were measured using a commercially available cAMP dynamic 2 HTRF kit (Cisbio, Cat #62AM4PEJ), following the two step protocol as per manufacturer's recommendations. In brief; anti-cAMP cryptate (donor fluorophore) and cAMP-d2 (acceptor fluorophore) were made up separately by diluting each 1/20 in conjugate & lysis buffer provided in the kit. 5 μL anti-cAMP cryptate was added to all wells of the assay plate, and 5 μL cAMP-d2 added to all wells except non-specific binding (NSB) wells, to which conjugate and lysis buffer was added. […] Data was transformed to % Delta F as described in manufacturer's guidelines and then transformed to percent activation of maximal native agonist response and analysed by 4-parameter logistic fit to determine EC50 values.
(§9) We used unconstrained 4 parameter logistic fit of data, curve mid-point to determine EC50. This was tested on two occasions, not two batches.

[2] = molecular target: T2, rat GLP-1 receptor (rGLP-1r) (Rattus norvegicus, UniProt P32301); experiment: BSA-cAMP assay, cells expressing rat GLP-1 receptor; type: cell-based; settings: BSA-cAMP assay
T2 construct: expressed in transfected cells; host or cells: HEK293s or CHO cells
T2 sequence (P32301 22-463): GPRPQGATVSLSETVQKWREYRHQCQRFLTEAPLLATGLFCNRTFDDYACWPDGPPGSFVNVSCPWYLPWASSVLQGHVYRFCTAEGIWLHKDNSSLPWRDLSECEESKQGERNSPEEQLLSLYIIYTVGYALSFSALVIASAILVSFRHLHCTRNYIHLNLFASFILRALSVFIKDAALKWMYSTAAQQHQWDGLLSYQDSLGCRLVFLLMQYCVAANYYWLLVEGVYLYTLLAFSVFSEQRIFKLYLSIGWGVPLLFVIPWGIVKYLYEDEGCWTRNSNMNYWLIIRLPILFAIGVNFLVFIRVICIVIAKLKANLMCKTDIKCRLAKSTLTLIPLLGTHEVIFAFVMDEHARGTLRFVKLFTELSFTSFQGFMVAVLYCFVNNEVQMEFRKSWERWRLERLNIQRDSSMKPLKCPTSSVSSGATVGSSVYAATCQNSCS
Description: as §3, §4, §5, §6, §7, §8, §9
(§10) In order to be able to carry out in vivo studies in rodents, IP088 was tested for potency against the mouse receptors mGIPr and mGLP-1r as well as the rat receptors rGIPr and rGLP-1r, using cells expressing the respective receptors in the cAMP assay described above.

rat GIP receptor (rGIPr) = molecular target: T3, rat GIP receptor (rGIPr) (Rattus norvegicus, UniProt P43219); experiment: BSA-cAMP assay, cells expressing rat GIP receptor; type: cell-based; settings: BSA-cAMP assay
T3 construct: expressed in transfected cells; host or cells: HEK293s or CHO cells
T3 sequence (P43219 19-455): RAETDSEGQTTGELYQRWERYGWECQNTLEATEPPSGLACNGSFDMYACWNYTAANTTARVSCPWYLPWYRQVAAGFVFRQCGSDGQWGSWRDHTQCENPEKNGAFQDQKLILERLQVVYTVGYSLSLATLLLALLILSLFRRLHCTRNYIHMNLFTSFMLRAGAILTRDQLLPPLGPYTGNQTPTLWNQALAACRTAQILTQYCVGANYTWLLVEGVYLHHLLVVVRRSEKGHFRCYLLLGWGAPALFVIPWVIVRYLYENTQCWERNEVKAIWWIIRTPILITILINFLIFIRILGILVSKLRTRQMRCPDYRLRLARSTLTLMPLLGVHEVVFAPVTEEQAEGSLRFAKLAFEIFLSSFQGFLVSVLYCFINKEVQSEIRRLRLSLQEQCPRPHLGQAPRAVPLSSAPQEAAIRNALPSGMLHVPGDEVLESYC
Description: as §3, §4, §5, §6, §7, §8, §9, §10

[3] = molecular target: T4, human GIP receptor (hGIPr) (Homo sapiens, UniProt P48546); experiment: BSA-cAMP assay, cells expressing human GIP receptor; type: cell-based; settings: BSA-cAMP assay
T4 construct: expressed in transfected cells
T4 sequence (P48546 22-466): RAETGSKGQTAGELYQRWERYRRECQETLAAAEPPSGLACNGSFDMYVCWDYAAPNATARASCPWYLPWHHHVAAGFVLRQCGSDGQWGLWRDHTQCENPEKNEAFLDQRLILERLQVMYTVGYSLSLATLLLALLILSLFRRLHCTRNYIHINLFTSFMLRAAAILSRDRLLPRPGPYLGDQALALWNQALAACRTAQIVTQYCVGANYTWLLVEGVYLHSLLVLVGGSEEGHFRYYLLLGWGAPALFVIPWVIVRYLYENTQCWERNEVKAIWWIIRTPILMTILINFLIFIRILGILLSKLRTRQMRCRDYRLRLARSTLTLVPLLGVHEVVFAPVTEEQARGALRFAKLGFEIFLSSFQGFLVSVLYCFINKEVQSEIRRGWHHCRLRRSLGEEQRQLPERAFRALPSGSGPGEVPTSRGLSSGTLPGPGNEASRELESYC
Description: For human GIPr, two different lines were used, shown as “hGIPr” and “hGIPr (C3)” in Table 11.
as §3, §4, §5, §6, §7, §8, §9

[4] = molecular target: T5, mouse GLP-1 receptor (mGLP-1r) (Mus musculus, UniProt O35659); experiment: BSA-cAMP assay, cells expressing mouse GLP-1 receptor; type: cell-based; settings: BSA-cAMP assay
T5 construct: expressed in transfected cells; host or cells: HEK293s or CHO cells
T5 sequence (O35659 22-463): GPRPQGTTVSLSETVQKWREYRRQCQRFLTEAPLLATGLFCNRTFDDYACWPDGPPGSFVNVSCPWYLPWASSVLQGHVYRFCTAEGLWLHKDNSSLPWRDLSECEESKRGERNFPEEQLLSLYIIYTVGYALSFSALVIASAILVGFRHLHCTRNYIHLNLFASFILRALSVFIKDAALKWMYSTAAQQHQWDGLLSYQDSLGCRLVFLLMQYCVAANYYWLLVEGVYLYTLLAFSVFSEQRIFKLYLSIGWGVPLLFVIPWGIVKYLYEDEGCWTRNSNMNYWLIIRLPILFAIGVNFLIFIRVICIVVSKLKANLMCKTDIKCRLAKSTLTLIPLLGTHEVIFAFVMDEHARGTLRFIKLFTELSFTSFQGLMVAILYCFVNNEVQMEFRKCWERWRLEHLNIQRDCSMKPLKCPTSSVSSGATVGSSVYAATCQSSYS
Description: as §3, §4, §5, §6, §7, §8, §9, §10

[5] = molecular target: T6, human glucagon receptor (GCGr) (Homo sapiens, UniProt P47871); experiment: BSA-cAMP assay, cells expressing human glucagon receptor; type: cell-based
T6 construct: expressed in transfected cells; host or cells: HEK293s or CHO cells
T6 sequence (P47871 26-477): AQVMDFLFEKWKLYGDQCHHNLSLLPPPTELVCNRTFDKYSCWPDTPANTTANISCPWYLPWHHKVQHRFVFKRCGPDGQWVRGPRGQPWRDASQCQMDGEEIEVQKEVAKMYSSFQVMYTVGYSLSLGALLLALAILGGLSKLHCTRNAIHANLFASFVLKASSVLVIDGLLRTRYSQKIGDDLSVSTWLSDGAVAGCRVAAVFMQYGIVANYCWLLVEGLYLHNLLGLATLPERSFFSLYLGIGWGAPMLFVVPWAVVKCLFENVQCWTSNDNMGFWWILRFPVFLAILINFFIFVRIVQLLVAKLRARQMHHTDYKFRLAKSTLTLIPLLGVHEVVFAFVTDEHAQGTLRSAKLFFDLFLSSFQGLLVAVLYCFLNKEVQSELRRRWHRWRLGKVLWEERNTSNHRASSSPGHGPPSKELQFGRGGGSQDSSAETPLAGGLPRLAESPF
Description: as §3, §4, §5, §6, §7, §8, §9

[6] = molecular target: T7, mouse GIP receptor (mGIPr) (Mus musculus, UniProt Q0P543); experiment: BSA-cAMP assay, cells expressing mouse GIP receptor; type: cell-based; settings: BSA-cAMP assay
T7 construct: expressed in transfected cells; host or cells: HEK293s or CHO cells
T7 sequence (Q0P543 19-460): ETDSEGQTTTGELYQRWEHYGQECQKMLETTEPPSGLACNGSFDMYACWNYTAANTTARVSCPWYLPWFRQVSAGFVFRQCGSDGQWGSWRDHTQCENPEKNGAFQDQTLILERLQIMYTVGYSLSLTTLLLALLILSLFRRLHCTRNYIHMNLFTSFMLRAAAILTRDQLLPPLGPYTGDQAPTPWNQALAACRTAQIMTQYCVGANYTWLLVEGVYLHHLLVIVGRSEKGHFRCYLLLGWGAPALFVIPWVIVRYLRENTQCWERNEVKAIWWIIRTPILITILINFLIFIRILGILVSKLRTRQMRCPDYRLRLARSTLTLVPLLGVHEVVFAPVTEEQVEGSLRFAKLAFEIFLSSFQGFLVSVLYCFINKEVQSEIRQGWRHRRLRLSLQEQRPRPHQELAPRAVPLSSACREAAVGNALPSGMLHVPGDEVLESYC
Description: as §3, §4, §5, §6, §7, §8, §9, §10

[7] = Batch 1, read-out: hGLP1r cAMP activity EC50
[8] = Batch 1, read-out: rGLP1r cAMP activity EC50
[9] = Batch 1, read-out: rGIPr cAMP activity EC50
[10] = Batch 1, read-out: hGIPr cAMP activity EC50
[11] = Batch 1, read-out: mGLP1r cAMP activity EC50
[12] = Batch 1, read-out: hGCGr cAMP activity EC50
[13] = Batch 1, read-out: mGIPr cAMP activity EC50

| Substance | pEC50 [1, 7] | pEC50 [2, 8] | pEC50 (rat GIP receptor (rGIPr); [9]) | pEC50 [3, 10] | pEC50 [4, 11] | pEC50 [5, 12] | pEC50 [6, 13] | other results |
| --- | --- | --- | --- | --- | --- | --- | --- | --- |
| GLP-1a-Fc (HGEGTFTSDVSSYLEEQAAKEFIAWLVKGR; /note=“Description of Artificial Sequence Synthetic GLP-1 Analog polypeptide”) |  |  |  |  |  |  |  | Cmax (PK by Fc Detection): 8500 ng/mL; F (%) (PK by Fc Detection): 59%; t½ (PK by Fc Detection): 79 h; Cmax (PK by Activity): 24 nM; F (%) (PK by Activity): 93%; t½ (PK by Activity): 30 h |
| IP342 (YSEGTFTSDYSAAAEAAAAAAFAAWLAAAAGGGGGSGGGGSGGGGSGGGGSACPPC) | 7.12 | 7.64 | 8.29 | 8.33 | 6.17 | < 5.45 | 7.37 |  |
| IP314: Fc fusion, IgG1-TM(ΔK), SEQ ID NO:431; agonist peptide YSEGTFISDYSKLLAAAAVRDFVNWLLAGG (YSEGTFISDYSKLLAAAAVRDFVNWLLAGGGGGGGSGGGGSGGGGSGGGGSATHTCPPC) | < 6.04 | 6.35 | 9.06 | 9.64 | < 6.04 | 6.13 | 7.82 |  |
| IP395 (YSEGTFTSDYSKLLERQAIDEFIAHLLKGGGGGGGSGGGGSGGGGSGGGGSACPPC) | 9.92 | 10.80 | 10.20 | 10.92 | 8.42 | 6.42 | 8.48 |  |
| IP289: Fc fusion, IgG1-TM(ΔK), SEQ ID NO:342; agonist peptide YSEGTFTSDYSKLLEKEAERLFIEWLLKGP (YSEGTFTSDYSKLLEKEAERLFIEWLLKGPGGGGGSGGGGSGGGGSGGGGSATHTCPPC) |  |  |  |  |  |  |  | pEC50 ([1]; batch 1 unless a batch is given, read-out: cAMP activity hGLP1r (EC50)): 8.47; pEC50 ([2]; read-out: cAMP activity rGLP1r (EC50)): 9.64; pEC50 (rat GIP receptor (rGIPr); read-out: cAMP activity rGIPr (EC50)): 10.70; pEC50 ([3]; batch 1 unless a batch is given, read-out: cAMP activity hGIPr (EC50)): 11.00; pEC50 ([4]; read-out: cAMP activity mGLP1r (EC50)): 8.17; pEC50 ([5]; batch 1 unless a batch is given, read-out: cAMP activity hGCGr (EC50)): 6.62; pEC50 ([6]; read-out: cAMP activity mGIPr (EC50)): 9.36 |
| IP302 (YSEGTFISDYSIALAAAAQQDFVNWLLAGGGGGGGSGGGGSGGGGSGGGGSATHTCPPC) | 7.59 | 8.15 | 10.26 | 10.74 | 7.03 | 5.92 | 10.08 |  |
| IP380: Fc fusion, IgG1-fusion, SEQ ID NO:376; agonist peptide YSEGTFTSDYSKLLEEEAVRLFIEFLLAGG (YSEGTFTSDYSKLLEEEAVRLFIEFLLAGGGGGGSGGGGSGGGGSGGGGSATHTCPPC) | 9.96 | 10.51 | 10.22 | 11.08 | 8.92 | 7.60 | 8.18 |  |
